Source: US20160083466A1

Target: human IL-25 expressed with a C-terminal myc-myc-hexahistidine tag (human)
Assay: competition ELISA, 2 nM hIL-25-MMH binding to coated hIL-17RB-hFc; IC50 cell printed 'Non-blocker'

Sequence of human IL-25 expressed with a C-terminal myc-myc-hexahistidine tag (human) (chain, as listed by the source): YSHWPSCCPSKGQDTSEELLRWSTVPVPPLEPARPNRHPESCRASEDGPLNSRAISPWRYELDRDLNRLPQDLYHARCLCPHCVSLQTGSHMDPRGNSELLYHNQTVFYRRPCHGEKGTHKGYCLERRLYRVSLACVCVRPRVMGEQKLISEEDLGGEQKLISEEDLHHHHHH

| Substance | % Maximum blocking of 200 nM antibody [%] |
| --- | --- |
| hIgG4 isotype control (antibody) | -31 |
| mIgG2a isotype control (antibody) | -45 |
